T1: wild-type glutathione S-transferase (GST)-EMD LCD fusion protein
T1 sequence (P50402 whole entry, species assumed, looked up): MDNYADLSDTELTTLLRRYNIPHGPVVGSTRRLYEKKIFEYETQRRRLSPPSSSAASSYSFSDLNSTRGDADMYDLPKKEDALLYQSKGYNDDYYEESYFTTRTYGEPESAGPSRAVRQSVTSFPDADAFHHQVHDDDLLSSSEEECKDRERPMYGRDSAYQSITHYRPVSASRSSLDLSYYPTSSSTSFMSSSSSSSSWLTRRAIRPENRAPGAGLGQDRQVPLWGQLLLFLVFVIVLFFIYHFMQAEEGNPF


Molecular target: T1, wild-type glutathione S-transferase (GST)-EMD LCD fusion protein
Experiment: GST pulldown, Western blot against HA, densitometry
Conditions: HA-tagged 3xPro EMD LCD prey 50 nM; n=3; parent: est. 0.26; read off a plot

| response | Molecule |
| --- | --- |
| 0.21 Fraction IP | HA-tagged EMD LCD, wild-type (recombinant) 3xPro 208-211 (insertion, not substitution: ...aa208(Pro)aa209(Pro)aa210(Pro)aa211...) |
| 0.21 Fraction IP | HA-tagged EMD LCD, wild-type (recombinant) 3xPro 178-181 (insertion, not substitution: ...aa178(Pro)aa179(Pro)aa180(Pro)aa181...) |
| 0.18 Fraction IP | HA-tagged EMD LCD, wild-type (recombinant) 3xPro 203-205 (label as printed; insertion of three prolines, not substitution) |

Molecular target: P07196
Experiment: turbidity (absorbance at 395 nm); synthetic NEFL head domain 5xD ChIM library, 100 μM LCD (n=3)
Conditions: other: turbidity (absorbance at 395 nm)

| Molecule | fold decrease in turbidity relative to wild-type |
| --- | --- |
| synthetic NEFL head domain 5xD_(22-30) (protein) SSFSYEPYYSTSYKRRYVETPRVHISSVRCGYSTARSAYSSYSAPVSSSLSVRRSYSSSSGSLMPSLENLELS | with 9.1-fold and 20-fold decreases in turbidity relative to wild-type, respectively |
| synthetic NEFL head domain 5xD_(33-41) (protein) SSFSYEPYYSTSYKRRYVETPRVHISSVRCGYSTARSAYSSYSAPVSSSLSVRRSYSSSSGSLMPSLENLELS | with 9.1-fold and 20-fold decreases in turbidity relative to wild-type, respectively |
| synthetic NEFL head domain 5xD_(43-51) (protein) SSFSYEPYYSTSYKRRYVETPRVHISSVRCGYSTARSAYSSYSAPVSSSLSVRRSYSSSSGSLMPSLENLELS | with 2.7-fold, 1.6-fold, and 1-fold relative decreases in turbidity, respectively |
| synthetic NEFL head domain 5xD_(63-71) (protein) SSFSYEPYYSTSYKRRYVETPRVHISSVRCGYSTARSAYSSYSAPVSSSLSVRRSYSSSSGSLMPSLENLELS | with 2.7-fold, 1.6-fold, and 1-fold relative decreases in turbidity, respectively |
| synthetic NEFL head domain 5xD_(53-63) (protein) SSFSYEPYYSTSYKRRYVETPRVHISSVRCGYSTARSAYSSYSAPVSSSLSVRRSYSSSSGSLMPSLENLELS | with 2.7-fold, 1.6-fold, and 1-fold relative decreases in turbidity, respectively |

Molecular target: P50402
Experiment: turbidity (absorbance at 395 nm); untagged semi-synthetic EMD LCD 3xD ChIM library, 50 μM LCD (n=3)
Conditions: other: turbidity (absorbance at 395 nm)

| Molecule | fold decrease in turbidity relative to wild-type |
| --- | --- |
| untagged semi-synthetic EMD LCD 3xD_(191-195) (protein) RRLSPPSSSAASSYSFSDLNSTRGDADMYDLPKKEDALLYQSKGYNDDYYEESYFTTRTYGEPESAGPSRAVRQSVTSFPDADAFHHQVHDDDLLSSSEEECKDRERPMYGRDSAYQSITHYRPVSASRSSLDLSYYPTSSSTCFMSSSSSSSSWLTRRAIRPENRAPGAGLGQER | 13.3-, 2.8-, and 2.1-fold decreases in turbidity |
| untagged semi-synthetic EMD LCD 3xD_(199-203) (protein) RRLSPPSSSAASSYSFSDLNSTRGDADMYDLPKKEDALLYQSKGYNDDYYEESYFTTRTYGEPESAGPSRAVRQSVTSFPDADAFHHQVHDDDLLSSSEEECKDRERPMYGRDSAYQSITHYRPVSASRSSLDLSYYPTSSSTCFMSSSSSSSSWLTRRAIRPENRAPGAGLGQER | 13.3-, 2.8-, and 2.1-fold decreases in turbidity |
| untagged semi-synthetic EMD LCD 3xD_(203-207) (protein) RRLSPPSSSAASSYSFSDLNSTRGDADMYDLPKKEDALLYQSKGYNDDYYEESYFTTRTYGEPESAGPSRAVRQSVTSFPDADAFHHQVHDDDLLSSSEEECKDRERPMYGRDSAYQSITHYRPVSASRSSLDLSYYPTSSSTCFMSSSSSSSSWLTRRAIRPENRAPGAGLGQER | displays a modest 1.4-fold decrease in turbidity |
| untagged semi-synthetic EMD LCD 3xD_(195-199) (protein) RRLSPPSSSAASSYSFSDLNSTRGDADMYDLPKKEDALLYQSKGYNDDYYEESYFTTRTYGEPESAGPSRAVRQSVTSFPDADAFHHQVHDDDLLSSSEEECKDRERPMYGRDSAYQSITHYRPVSASRSSLDLSYYPTSSSTCFMSSSSSSSSWLTRRAIRPENRAPGAGLGQER | 13.3-, 2.8-, and 2.1-fold decreases in turbidity |

Molecular target: the molecule itself
Experiment: as above
Conditions: not given

| Molecule | binding result |
| --- | --- |
| untagged semi-synthetic EMD LCD (residues 46-221), all L- wild-type (domain or fragment, UniProt P50402 46-221, looked up, Emerin (EMD) low-complexity domain, residues 46-221 (P1 46-188 recombinant, P2 189-221 synthetic); P2 made on Rink amide resin (C-terminal amide surmised); source: RP-HPLC purified) RRLSPPSSSAASSYSFSDLNSTRGDADMYDLPKKEDALLYQSKGYNDDYYEESYFTTRTYGEPESAGPSRAVRQSVTSFPDADAFHHQVHDDDLLSSSEEECKDRERPMYGRDSAYQSITHYRPVSASRSSLDLSYYPTSSSTCFMSSSSSSSSWLTRRAIRPENRAPGAGLGQER | binds |

System: not listed separately
Experiment: turbidity (absorbance at 395 nm); untagged recombinant EMD LCD 3xPro library, 60 μM LCD, transferred from denaturing to native Tris buffer (n=3)
Conditions: other: turbidity (absorbance at 395 nm)

| Molecule | fold decrease in turbidity relative to wild-type |
| --- | --- |
| untagged EMD LCD 3xPro_(203-206) | reduce turbidity by 107.6-, 16.6-, 34.7-, and 14.3-fold, respectively |
| untagged EMD LCD 3xPro_(193-196) | reduce turbidity by 107.6-, 16.6-, 34.7-, and 14.3-fold, respectively |
| untagged EMD LCD 3xPro_(183-186) | modestly reduces turbidity by 2.8-fold relative to wild-type |
| untagged EMD LCD 3xPro_(188-191) | reduce turbidity by 107.6-, 16.6-, 34.7-, and 14.3-fold, respectively |
| untagged EMD LCD 3xPro_(198-201) | reduce turbidity by 107.6-, 16.6-, 34.7-, and 14.3-fold, respectively |

Molecular target: T1, wild-type glutathione S-transferase (GST)-EMD LCD fusion protein
Experiment: pull-down; wild-type GST-EMD LCD immobilized on glutathione resin, incubated with HA-tagged EMD LCD prey (50 nM), washed with binding buffer, eluted with GSH; Western blot against HA in eluent relative to input, densitometry (n=3)
Conditions: not given

| fold reduction of pulldown relative to wild-type | Molecule |
| --- | --- |
| 2.2 fold | HA-tagged EMD LCD 3xPro_(183-186) (domain or fragment) |
| 5 fold | HA-tagged EMD LCD 3xPro_(188-191) (domain or fragment) |
| 3.4 fold | HA-tagged EMD LCD 3xPro_(198-201) (domain or fragment) |
| 5.9 fold | HA-tagged EMD LCD 3xPro_(193-196) (domain or fragment) |

Molecular target: T1, wild-type glutathione S-transferase (GST)-EMD LCD fusion protein
Experiment: as above
Conditions: not given
Remark: another data set of the same source

| fold reduction of pulldown relative to wild-type | Molecule |
| --- | --- |
| 8.8 fold | HA-tagged semi-synthetic EMD LCD 3xD_(191-195) (domain or fragment, three D-amino acids at alternating positions within 191-195) RRLSPPSSSAASSYSFSDLNSTRGDADMYDLPKKEDALLYQSKGYNDDYYEESYFTTRTYGEPESAGPSRAVRQSVTSFPDADAFHHQVHDDDLLSSSEEECKDRERPMYGRDSAYQSITHYRPVSASRSSLDLSYYPTSSSTCFMSSSSSSSSWLTRRAIRPENRAPGAGLGQER |
| 7.9 fold | HA-tagged semi-synthetic EMD LCD 3xD_(195-199) (domain or fragment, three D-amino acids at alternating positions within 195-199) RRLSPPSSSAASSYSFSDLNSTRGDADMYDLPKKEDALLYQSKGYNDDYYEESYFTTRTYGEPESAGPSRAVRQSVTSFPDADAFHHQVHDDDLLSSSEEECKDRERPMYGRDSAYQSITHYRPVSASRSSLDLSYYPTSSSTCFMSSSSSSSSWLTRRAIRPENRAPGAGLGQER |
| 3.6 fold | HA-tagged semi-synthetic EMD LCD 3xD_(203-207) (domain or fragment, three D-amino acids at alternating positions within 203-207) RRLSPPSSSAASSYSFSDLNSTRGDADMYDLPKKEDALLYQSKGYNDDYYEESYFTTRTYGEPESAGPSRAVRQSVTSFPDADAFHHQVHDDDLLSSSEEECKDRERPMYGRDSAYQSITHYRPVSASRSSLDLSYYPTSSSTCFMSSSSSSSSWLTRRAIRPENRAPGAGLGQER |
| 1.7 fold | HA-tagged semi-synthetic EMD LCD 3xD_(211-215) (domain or fragment, three D-amino acids at alternating positions within 211-215) RRLSPPSSSAASSYSFSDLNSTRGDADMYDLPKKEDALLYQSKGYNDDYYEESYFTTRTYGEPESAGPSRAVRQSVTSFPDADAFHHQVHDDDLLSSSEEECKDRERPMYGRDSAYQSITHYRPVSASRSSLDLSYYPTSSSTCFMSSSSSSSSWLTRRAIRPENRAPGAGLGQER |
| 1.8 fold | HA-tagged semi-synthetic EMD LCD 3xD_(207-211) (domain or fragment, three D-amino acids at alternating positions within 207-211) RRLSPPSSSAASSYSFSDLNSTRGDADMYDLPKKEDALLYQSKGYNDDYYEESYFTTRTYGEPESAGPSRAVRQSVTSFPDADAFHHQVHDDDLLSSSEEECKDRERPMYGRDSAYQSITHYRPVSASRSSLDLSYYPTSSSTCFMSSSSSSSSWLTRRAIRPENRAPGAGLGQER |
| 6.2 fold | HA-tagged semi-synthetic EMD LCD 3xD_(199-203) (domain or fragment, three D-amino acids at alternating positions within 199-203) RRLSPPSSSAASSYSFSDLNSTRGDADMYDLPKKEDALLYQSKGYNDDYYEESYFTTRTYGEPESAGPSRAVRQSVTSFPDADAFHHQVHDDDLLSSSEEECKDRERPMYGRDSAYQSITHYRPVSASRSSLDLSYYPTSSSTCFMSSSSSSSSWLTRRAIRPENRAPGAGLGQER |
